Test results as given in US11767351B2, “Recombinant lectin and uses thereof” (CITY OF HOPE, priority 2017, dated 2023).
Entries after “also recorded” stand apart in the source; their conditions may differ.

Experiments:
[1] = Glycan microarray (RayBio Glycan Array 100); assay type: binding; conditions: biotin-labeled SHAs 20 μg/ml (1×) and 2 μg/ml (0.1×), absence of L-rhamnose
[2] = Glycan microarray (RayBio Glycan Array 100); assay type: binding; conditions: biotin-labeled SHAs 20 μg/ml (1×) and 2 μg/ml (0.1×), absence of L-rhamnose; remark: listed apart in the source
[3] = Glycan microarray (RayBio Glycan Array 100); assay type: binding; conditions: biotin-labeled SHAs 20 μg/ml (1×) and 2 μg/ml (0.1×), absence of L-rhamnose; remark: listed apart in the source
[4] = Glycan microarray (RayBio Glycan Array 100); assay type: binding; conditions: biotin-labeled SHAs 20 μg/ml (1×) and 2 μg/ml (0.1×), absence of L-rhamnose; remark: listed apart in the source
[5] = Glycan microarray (RayBio Glycan Array 100); assay type: binding; conditions: biotin-labeled SHAs 20 μg/ml (1×) and 2 μg/ml (0.1×), absence of L-rhamnose; remark: listed apart in the source
[6] = Glycan microarray (RayBio Glycan Array 100); assay type: binding; conditions: biotin-labeled SHAs 20 μg/ml (1×) and 2 μg/ml (0.1×), absence of L-rhamnose; remark: listed apart in the source
[7] = Glycan microarray (RayBio Glycan Array 100); assay type: binding; conditions: biotin-labeled SHAs 20 μg/ml (1×) and 2 μg/ml (0.1×), absence of L-rhamnose; remark: listed apart in the source
[8] = Glycan microarray (RayBio Glycan Array 100); assay type: binding; conditions: biotin-labeled SHAs 20 μg/ml (1×) and 2 μg/ml (0.1×), absence of L-rhamnose; remark: listed apart in the source
[9] = Glycan microarray (RayBio Glycan Array 100); assay type: binding; conditions: biotin-labeled SHAs 20 μg/ml (1×) and 2 μg/ml (0.1×), absence of L-rhamnose; remark: listed apart in the source
[10] = Glycan microarray (RayBio Glycan Array 100); assay type: binding; conditions: biotin-labeled SHAs 20 μg/ml (1×) and 2 μg/ml (0.1×), absence of L-rhamnose; remark: listed apart in the source
[11] = Glycan microarray (RayBio Glycan Array 100); assay type: binding; conditions: biotin-labeled SHAs 20 μg/ml (1×) and 2 μg/ml (0.1×), absence of L-rhamnose; remark: listed apart in the source
[12] = Glycan microarray (RayBio Glycan Array 100); assay type: binding; conditions: glycans listed in Table 4
Procedure: Glycan microarray analyses—Microarray analysis was performed according to the manufacturer recommendations using RayBio Glycan Array 100 (RayBiotech, Norcross Ga.) slides. Each slide contains four sub-microarrays printed with 100 synthetic glycans. Briefly, 200 μL of 0.1 mg/mL of both archived SHA and rSHA were dialyzed overnight at 4° C. against 1×PBS dialysis buffer to avoid contaminating samples with amines prior to biotinylation. Dialyzed samples were incubated with biotin-containing reaction solution at 22° C. for 30 min. Sub-arrays were blocked for 30 min at 22° C. After biotinylated SHA samples were diluted with 1×PBS, 400 μL of each sample was added to each sub-array. Slide #1 sub-arrays were incubated with 400 μL of 20 μg/mL (1×) or 2 μg/mL (0.1×) SHA, in the absence or presence of 0.2 M L-Rhamnose. Slide #2 sub-arrays were incubated with 400 μL of 20 μg/mL (1×) or 2 μg/mL of rSHA (0.1×), in the absence or presence of 0.2 M L-rhamnose. Slides were incubated for 16 h at 4° C. for highest intensities. […]
(§1) Therefore, a novel construct that encoded an E. coli codon-optimized, His-tagged, Trx-SMT3 (SUMO family protein)-SHA(A108E) fusion protein was expressed. […] The glycan binding was measured using two distinct concentrations of biotin-labeled SHAs (1×: 20 μg/ml and 0.1×: 2 μg/ml) in the absence and presence of 0.2 M L-rhamnose as a competitive inhibitor.

[13] = Glycan microarray (RayBio Glycan Array 100), whole array profile and L-rhamnose competition; assay type: binding; conditions: for carbohydrate-binding specificity compared with archived SHA: side by side on Glycan Array 100
Procedure: Glycan microarray analyses—Microarray analysis was performed according to the manufacturer recommendations using RayBio Glycan Array 100 (RayBiotech, Norcross Ga.) slides. Each slide contains four sub-microarrays printed with 100 synthetic glycans. Briefly, 200 μL of 0.1 mg/mL of both archived SHA and rSHA were dialyzed overnight at 4° C. against 1×PBS dialysis buffer to avoid contaminating samples with amines prior to biotinylation. Dialyzed samples were incubated with biotin-containing reaction solution at 22° C. for 30 min. Sub-arrays were blocked for 30 min at 22° C. After biotinylated SHA samples were diluted with 1×PBS, 400 μL of each sample was added to each sub-array. Slide #1 sub-arrays were incubated with 400 μL of 20 μg/mL (1×) or 2 μg/mL (0.1×) SHA, in the absence or presence of 0.2 M L-Rhamnose. Slide #2 sub-arrays were incubated with 400 μL of 20 μg/mL (1×) or 2 μg/mL of rSHA (0.1×), in the absence or presence of 0.2 M L-rhamnose. Slides were incubated for 16 h at 4° C. for highest intensities. Washing was performed according to the manufacturer's protocol, followed by incubation with Cy3 dye-conjugated streptavidin. The slides were incubated at 22° C. for 1 h with gentle shaking, then washed multiple times as recommended. The signals were visualized using an Agilent DNA microarray scanner (Model G2505C; Agilent, Santa Clara, Calif.) at 532 nm for Cy3. Data extraction and analysis was performed after subtraction of the background and normalization to the internal references provided by the manufacturer, using an ImageJ Protein Array Analyzer software (28).
as §1

[14] = Solubility of recombinant SHA proteins; assay type: physicochemical; conditions: expressed in E. coli
Procedure: Due to solubility issues various fusion proteins of the recombinant SHA were prepared and expressed in E. coli. Of those, a yeast SUMO(SMT3)-fusion protein was successfully purified for comparing carbohydrate-binding specificity with that of archived SHA. Briefly, SMT3-fused SHA(A108E) was prepared by insertion at the SMT3 and Ulp1 cleavage sites of pET32b/SHA(A108E). E. Cloni® (Lucigen) was transformed by pET32b/SMT3-SHA(A108E). […] SHA(A108E) was cleaved off from SMT3 bound to the column by incubating with UPL1. The resulting SHA(A108E) was purified by gum arabic gels. The authenticity of SHA(A108E) was confirmed by SDS-PAGE and glycan microarray analyses.
as §1, with “expressed. This protein was refolded on the nickel NTA column in the presence of D-galactose, and soluble recombinant SHA (rSHA) was cleaved off from the Trx-SMT3 portion using His-tagged Ulp1 (8). The purified rSHA is shown in FIG. 6C, together with archived SHA.” for “expressed.”

B1: rSHA: recombinant SHA(A108E) expressed in E. coli, cleaved from Trx-SMT3 fusion; SEQ ID NO: 25 (protein)
chain: ARTVCYAAHVEGIGWQGAVCDGAVAGTTGQSRRMEAAVIATSGTGGVCANAHLADIGWQGWACAADGKAVTVGTTGQSRRMEALGLQVGNGSVAAQAHVADYGWLNAEGGNPVYVGTTGQSRRMEAVRIWV
modifications: recombinant SHA
binding signal to β-Gal- [1]: Strong signals
binding signal to α-Rha- [2]: Strong signals
binding signal to Gal-α-1,3-Gal-β-1,3-GlcNAc-β- [3]: Strong signals
binding signal to Gal-α-1,3-Gal-β-1,4-Glc-β- [4]: Strong signals
binding signal to Gal-α-1,4-Gal-β-1,3-GlcNAc-β- [5]: Strong signals
binding signal to Blood B antigen trisaccharide [6]: Strong signals
binding signal to Blood B antigen tetrasaccharide [7]: Strong signals
binding signal to Gal-α-1,3-Gal-β- [8]: Strong signals
binding to Gal-α-1,4-Gal-β-1,4-Glc-β- [9]: weaker, but still significant, binding
binding to GaINAc-β-1,3-Gal-β-1,4-Glc-β- [10]: weaker, but still significant, binding
binding to Gal-α-1,4-Gal-β-1,4-GlcNAc-β- [11]: weaker, but still significant, binding
binding to the remaining 89 chip-immobilized glycans [12]: did not bind
binding to all glycans, except α-Rha, in the presence of L-rhamnose ([13]; 0.2 M L-rhamnose as competitive inhibitor): competitively inhibited
carbohydrate-binding specificity compared with archived SHA [13]: identical carbohydrate-binding specificities; also recorded: same glycan specificity profile
carbohydrate-binding specificity compared with archived SHA ([13]; listed as SHA(A108E)): same carbohydrate-binding specificity
solubility [14]: soluble
